Ends that are not written are not given here.
Molecular target: glucagon receptor (UniProt P47871 26-477, limits assumed)
Experiment: cell-based or functional assay

Sequence of glucagon receptor (P47871 26-477 limits assumed): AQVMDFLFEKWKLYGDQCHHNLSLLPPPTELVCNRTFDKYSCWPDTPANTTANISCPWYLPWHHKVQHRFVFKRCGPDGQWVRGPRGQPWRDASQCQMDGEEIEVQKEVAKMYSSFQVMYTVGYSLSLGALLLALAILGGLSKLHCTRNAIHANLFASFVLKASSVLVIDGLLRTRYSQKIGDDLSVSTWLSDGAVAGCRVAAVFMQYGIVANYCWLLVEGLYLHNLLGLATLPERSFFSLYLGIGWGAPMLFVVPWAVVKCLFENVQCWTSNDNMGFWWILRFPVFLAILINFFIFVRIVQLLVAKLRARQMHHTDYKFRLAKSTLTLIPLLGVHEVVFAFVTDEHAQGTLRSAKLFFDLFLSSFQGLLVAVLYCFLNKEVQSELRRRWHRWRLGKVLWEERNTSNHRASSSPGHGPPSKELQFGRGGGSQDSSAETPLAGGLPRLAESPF

B1: Peptide V (peptide)
peptide: HSEGTFTSDYSKYLDEQAAKEFIC(PEG 20 kDa)WLMNT
modifications: not fully specified (C-terminus)
  glucagon agonism: > 10 fold reduction
